Consider 19 molecules from patent US20140179900A1.

The target in test [1] is monoclonal antibody 12G6H5 (“Frida”). In words: inhibition ELISA FIG. 18a, low peptide, 2.5 ng Frida, coat p4073. Background: In an ELISA, binding on a coated surface is turned into a signal by an enzyme label.
The target is the same in test [2]. Kind of test: inhibition ELISA FIG. 18a, high peptide, 2.5 ng Frida, coat p4073.
Test [3] shares this target. In words: inhibition ELISA FIG. 18c, low peptide, 2.5 ng Frida, coat p4073.
Test [4] shares this target. In words: inhibition ELISA FIG. 18c, high peptide, 2.5 ng Frida, coat p4073.
Test [5] has the same target. Kind of test: inhibition ELISA FIG. 10b, 2 µg peptide, 2.5 ng Frida, coat p4073.
Test [6] shares this target. Kind of test: inhibition ELISA FIG. 10b, 20 µg peptide, 2.5 ng Frida, coat p4073.
Test [7] shares this target. Kind of test: inhibition ELISA FIG. 10a, 20 µg peptide, 2.5 ng Frida, coat p4073.
Test [8] shares this target. In words: inhibition ELISA FIG. 10a, 2 µg peptide, 2.5 ng Frida, coat p4073.

B1: p4474 C-… (peptide)
peptide: CFGFPAHVFIDWLQSLN
For the molecule B1, the ELISA signal with competitor in test [1] worked out at 1.45; in test [2], 0.179.

B2: p4481 C-… (peptide)
peptide: CFGFPQHLFTDWLQSLS
As to B2, the ELISA signal with competitor in test [1] was 0.551; in test [2], 0.156.

B3: p4476 C-… (peptide)
peptide: CFGFPAHVSFDWLQSLS
For B3, the ELISA signal with competitor in test [1] was 2; in test [2] it was 1.42.

B4: p4432 C-… (peptide)
peptide: CFGFPSHIIIDWLQSLS
As for B4, the values for the ELISA signal with competitor in test [3] and in test [4] were 0.635 and 0.096, respectively.

B5: p4434 C-… (peptide)
peptide: CAAFPAHLLADAAQALA
For the molecule B5, the values for the ELISA signal with competitor in test [3] and in test [4] were 1.74 and 1.46, respectively.

B6: p1208 …-C (peptide)
peptide: FGFPEHLLVDFLQSLSC
B6: the ELISA signal with competitor in test [1] was 0.712; in test [3], 0.942; in test [4], 0.101; in test [2], 0.093.

B7: p4478 C-… (peptide)
peptide: CFKPAHVFIDWLQSLS
In the case of B7, the ELISA signal with competitor in test [1] worked out at 2.23; in test [2] it was 1.21.

B8: p4437 C-… (peptide)
peptide: CAAAPAHLLVDAAQAAA
As for B8, the results for the ELISA signal with competitor in test [3] and in test [4] were 1.84 and 1.67, respectively.

B9: p4325 C-… (peptide)
peptide: CFGFPSHLIIDWLQSLS
Regarding B9, the ELISA signal with competitor in test [5] was determined as 0.42; in test [6], 0.1.

B10: p4361 C-… (peptide)
peptide: CFGFPAHVFIDWLQSLS
With B10, the ELISA signal with competitor in test [7] turned out to be 0.16; in test [8], 0.82.

B11: p4073 C-…, original CETP epitope (peptide)
peptide: CFGFPEHLLVDFLQSLS
As to B11, the ELISA signal with competitor in test [1] is 0.537; in test [7], 0.1; in test [5], 0.64; in test [3] it was 0.554; in test [6] it was 0.15; in test [4], 0.088. Besides, the ELISA signal with competitor turned out to be 0.44 in test [8] and 0.094 in test [2].

B12: p4362 C-… (peptide)
peptide: CFGFPAHVYIDWLQSLS
Take B12: the ELISA signal with competitor is 0.15 in test [7] and 0.75 in test [8].

B13: p4435 C-… (peptide)
peptide: CAAFPAHAAADFLQALA
In the case of B13, the ELISA signal with competitor in test [3] amounted to 1.28; in test [4], 1.97.

B14: p4477 C-… (peptide)
peptide: CFGFPEHVFIDWLQSLS
Take B14: the ELISA signal with competitor in test [1] was 0.808; in test [2] it was 0.116.

B15: p4436 C-… (peptide)
peptide: CAAFAAHLLADFLQAAA
With B15, the ELISA signal with competitor was determined as 1.63 in test [3] and 1.69 in test [4].

B16: p4475 C-… (peptide)
peptide: CFGFPAHFSIDWLQSLS
For B16, the ELISA signal with competitor in test [1] amounted to 2.21; in test [2], 1.43.

B17: p4480 C-… (peptide)
peptide: CDFGFPAHVFIDWLQSLS
Take B17: the ELISA signal with competitor in test [1] stood at 0.521; in test [2], 0.103.

B18: p4433 C-… (peptide)
peptide: CFGFPSHLIIEWLQSLS
As for B18, the ELISA signal with competitor was determined as 1.11 in test [3] and 0.672 in test [4].

B19: p4479 C-… (peptide)
peptide: CGFKPAHVFIDWLQSLS
For the molecule B19, the ELISA signal with competitor stood at 2.17 in test [1] and 1.59 in test [2].
